Literature values as cited in PMC3736882.

Molecular target: Factor VIII (Homo sapiens) (UniProt P00451)
UniProt P00451, sequence (P00451 760-1332): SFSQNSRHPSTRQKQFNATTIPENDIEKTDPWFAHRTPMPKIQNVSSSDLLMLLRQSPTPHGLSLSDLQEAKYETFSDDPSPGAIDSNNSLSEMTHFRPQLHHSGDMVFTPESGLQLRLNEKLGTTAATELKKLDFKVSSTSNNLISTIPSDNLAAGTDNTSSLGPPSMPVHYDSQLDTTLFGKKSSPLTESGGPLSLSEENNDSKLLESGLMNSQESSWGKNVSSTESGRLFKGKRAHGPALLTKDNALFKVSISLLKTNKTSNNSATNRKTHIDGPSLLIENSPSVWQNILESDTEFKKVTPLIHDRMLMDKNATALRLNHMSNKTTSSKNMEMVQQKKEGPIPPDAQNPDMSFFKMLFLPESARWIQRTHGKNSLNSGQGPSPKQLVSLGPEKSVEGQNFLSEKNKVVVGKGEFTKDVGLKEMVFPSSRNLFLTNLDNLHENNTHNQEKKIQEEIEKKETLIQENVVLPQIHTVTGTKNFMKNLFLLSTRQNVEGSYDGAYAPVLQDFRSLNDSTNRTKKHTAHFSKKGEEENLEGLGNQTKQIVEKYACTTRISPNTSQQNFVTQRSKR

In the case of “von Willebrand factor (from UniProt P04275)”, the Kd is given as under 1 nM.
